Results: PMC8313134, “Jasmonate‐ and abscisic acid‐activated AaGSW1‐AaTCP15/AaORA transcriptional cascade promotes artemisinin biosynthesis in Artemisia annua”
Positions count from the first letter of the chain named.

Columns and labels:
Settings in all cases: protein: recombinant; tags: His-TF (trigger factor), pCold-TF; chain copies: 2; blunt
AaTCP15 [1] = target: T1, AaTCP15 (Artemisia annua, UniProt A0A8E3YC86 1-384); experiment: EMSA; cold Dq competitor reduces shift; not given; EMSA as described in Ma et al. 2018; cold competitor 10x, 20x, 40x
AaTCP15 [2] = target: T1, AaTCP15; experiment: EMSA; not given; EMSA as described in Ma et al. 2018; cold competitor 10x, 20x, 40x
AaTCP15 [3] = target: T1, AaTCP15; experiment: EMSA; cold Aq competitor reduces shift; not given; EMSA as described in Ma et al. 2018; cold competitor 10x, 20x, 40x

T1 sequence (A0A8E3YC86 entry or part of it): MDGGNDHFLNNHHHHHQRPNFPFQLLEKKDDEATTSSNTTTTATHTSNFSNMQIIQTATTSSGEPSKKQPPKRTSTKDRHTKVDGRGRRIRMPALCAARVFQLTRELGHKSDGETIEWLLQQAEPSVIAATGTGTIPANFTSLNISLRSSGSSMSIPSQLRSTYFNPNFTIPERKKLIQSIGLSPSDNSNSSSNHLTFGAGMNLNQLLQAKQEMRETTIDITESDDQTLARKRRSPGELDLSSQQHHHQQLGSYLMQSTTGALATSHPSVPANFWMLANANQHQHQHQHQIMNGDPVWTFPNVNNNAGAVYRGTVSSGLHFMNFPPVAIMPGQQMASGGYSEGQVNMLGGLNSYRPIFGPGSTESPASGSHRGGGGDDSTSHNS

B1: Dq probe (DBR2 promoter) (dsDNA)
DNA 1: GTCGCTAAACTTGCCACGGTCCCACTTTTTCAACTCTTATTA
DNA 2: TAATAAGAGTTGAAAAAGTGGGACCGTGGCAAGTTTAGCGAC
AaTCP15 [1]
  binding result: binds

B2: Dq mutated probe (dsDNA)
DNA 1: B1 DNA 1 with C21A, C22A, C23A, A24C, C25A
DNA 2: B1 DNA 2 with G18T, T19G, G20T, G21T, G22T
AaTCP15 [2]
  binding result: no binding

B3: Aq probe (ALDH1 promoter) (dsDNA)
DNA 1: GGTTGGTTGCATTATCTGGCCCCACCGTAAACAATCAAATGC
DNA 2: GCATTTGATTGTTTACGGTGGGGCCAGATAATGCAACCAACC
AaTCP15 [3]
  binding result: binds
